Measurements as given in patent publication US20140087995A1 (published 2014).
Numbered stars: 1 amine (or outer) side, 2 acyl side, 3 side chain; on linkers, the order of the positions; unused ones are H or OH. Bridge positions count the residues as written; N and C are the ends. Side chains are listed from the residue outwards. Ends that are not written are not given here. * marks the point of attachment. C20 diacid = O=C(O)CCCCCCCCCCCCCCCCCCC(=O)*; γGlu = O=C(O)[C@H](CCC(=O)[*:2])N[*:1]; AEEA = NCCOCCOCC(=O)O

T1: human amylin receptor (amylin 3(a) receptor: human calcitonin receptor with RAMP-3) (human, UniProt P30988 25-474; O60896 24-148)
T1 construct: whole, on cells; also called hAmylin-R; hAmylinR
T1 sequence (looked up) 1: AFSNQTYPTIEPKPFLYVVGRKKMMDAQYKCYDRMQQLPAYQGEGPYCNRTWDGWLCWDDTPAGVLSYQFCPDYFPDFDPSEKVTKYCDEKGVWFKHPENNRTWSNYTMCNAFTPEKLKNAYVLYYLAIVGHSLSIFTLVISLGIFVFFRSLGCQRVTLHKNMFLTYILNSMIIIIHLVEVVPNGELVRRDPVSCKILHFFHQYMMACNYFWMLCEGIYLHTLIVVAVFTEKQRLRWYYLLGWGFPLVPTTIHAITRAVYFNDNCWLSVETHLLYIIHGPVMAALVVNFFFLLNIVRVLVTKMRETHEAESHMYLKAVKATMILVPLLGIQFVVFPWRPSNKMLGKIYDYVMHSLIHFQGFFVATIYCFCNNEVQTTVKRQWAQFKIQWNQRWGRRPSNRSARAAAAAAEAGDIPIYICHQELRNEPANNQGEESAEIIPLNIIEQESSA
T1 sequence (looked up) 2: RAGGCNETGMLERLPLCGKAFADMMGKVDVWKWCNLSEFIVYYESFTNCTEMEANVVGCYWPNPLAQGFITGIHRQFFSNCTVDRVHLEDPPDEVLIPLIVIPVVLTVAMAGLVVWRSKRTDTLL


Each binder was assayed against T1, human amylin receptor (amylin 3(a) …) (assay: SPA displacement of 125I-rat amylin, hAmylin 3(a) receptor membranes).
Outline: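 SPA beads with BHK Amylin 3(a)/CRE-luc cell membranes (35 ng/μL final) in 50 mM Hepes pH 7.4, 1 mM CaCl2, 5 mM MgCl₂, 0.1% OA, 0.02% Tween20.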

IC50 [nM] | Binder
0.076 | K([AEEA-C20 diacid])CNTATCATQRLANFLRHSSPNFGAIPSSTNVGSNTY-NH2 (disulfide 2-7; N-terminus assumed; SMILES CC[C@H](C)[C@H](NC(=O)[C@H](C)NC(=O)CNC(=O)[C@H](Cc1ccccc1)NC(=O)[C@H](CC(N)=O)NC(=O)[C@@H]1CCCN1C(=O)[C@H](CO)NC(=O)[C@H](CO)NC(=O)[C@H](Cc1c[nH]cn1)NC(=O)[C@H](CCCNC(=N)N)NC(=O)[C@H](CC(C)C)NC(=O)[C@H](Cc1ccccc1)NC(=O)[C@H](CC(N)=O)NC(=O)[C@H](C)NC(=O)[C@H](CC(C)C)NC(=O)[C@H](CCCNC(=N)N)NC(=O)[C@H](CCC(N)=O)NC(=O)[C@@H](NC(=O)[C@H](C)NC(=O)[C@@H]1CSSC[C@H](NC(=O)[C@@H](N)CCCCNC(=O)COCCOCCNC(=O)CCCCCCCCCCCCCCCCCCC(=O)O)C(=O)N[C@@H](CC(N)=O)C(=O)N[C@@H]([C@@H](C)O)C(=O)N[C@@H](C)C(=O)N[C@@H]([C@@H](C)O)C(=O)N1)[C@@H](C)O)C(=O)N1CCC[C@H]1C(=O)N[C@@H](CO)C(=O)N[C@@H](CO)C(=O)N[C@H](C(=O)N[C@@H](CC(N)=O)C(=O)N[C@H](C(=O)NCC(=O)N[C@@H](CO)C(=O)N[C@@H](CC(N)=O)C(=O)N[C@H](C(=O)N[C@@H](Cc1ccc(O)cc1)C(N)=O)[C@@H](C)O)C(C)C)[C@@H](C)O, also called 43; compound 43) [N^ε1-[2-[2-[2-(19-carboxynonadecanoylamino)ethoxy]ethoxy]acetyl]-[Arg17,Pro21,Pro27]-h-amylin]
0.403 | {C20 diacid-γGlu}-KCNTATCATQRLAEFLRHSSPNFGAIPSSTNVGKNTY-NH2 (disulfide 2-7; SMILES CC[C@H](C)[C@H](NC(=O)[C@H](C)NC(=O)CNC(=O)[C@H](Cc1ccccc1)NC(=O)[C@H](CC(N)=O)NC(=O)[C@@H]1CCCN1C(=O)[C@H](CO)NC(=O)[C@H](CO)NC(=O)[C@H](Cc1c[nH]cn1)NC(=O)[C@H](CCCNC(=N)N)NC(=O)[C@H](CC(C)C)NC(=O)[C@H](Cc1ccccc1)NC(=O)[C@H](CCC(=O)O)NC(=O)[C@H](C)NC(=O)[C@H](CC(C)C)NC(=O)[C@H](CCCNC(=N)N)NC(=O)[C@H](CCC(N)=O)NC(=O)[C@@H](NC(=O)[C@H](C)NC(=O)[C@@H]1CSSC[C@H](NC(=O)[C@H](CCCCN)NC(=O)CC[C@H](NC(=O)CCCCCCCCCCCCCCCCCCC(=O)O)C(=O)O)C(=O)N[C@@H](CC(N)=O)C(=O)N[C@@H]([C@@H](C)O)C(=O)N[C@@H](C)C(=O)N[C@@H]([C@@H](C)O)C(=O)N1)[C@@H](C)O)C(=O)N1CCC[C@H]1C(=O)N[C@@H](CO)C(=O)N[C@@H](CO)C(=O)N[C@H](C(=O)N[C@@H](CC(N)=O)C(=O)N[C@H](C(=O)NCC(=O)N[C@@H](CCCCN)C(=O)N[C@@H](CC(N)=O)C(=O)N[C@H](C(=O)N[C@@H](Cc1ccc(O)cc1)C(N)=O)[C@@H](C)O)C(C)C)[C@@H](C)O, also called 36; compound 36)
1.19 | KCNTATCATQRLADFLRHSSK([γGlu-γGlu-C20 diacid])NFGAIPSSTNVGSDTY-NH2 (disulfide 2-7; N-terminus assumed; SMILES CC[C@H](C)[C@H](NC(=O)[C@H](C)NC(=O)CNC(=O)[C@H](Cc1ccccc1)NC(=O)[C@H](CC(N)=O)NC(=O)[C@H](CCCCNC(=O)CC[C@H](NC(=O)CC[C@H](NC(=O)CCCCCCCCCCCCCCCCCCC(=O)O)C(=O)O)C(=O)O)NC(=O)[C@H](CO)NC(=O)[C@H](CO)NC(=O)[C@H](Cc1c[nH]cn1)NC(=O)[C@H](CCCNC(=N)N)NC(=O)[C@H](CC(C)C)NC(=O)[C@H](Cc1ccccc1)NC(=O)[C@H](CC(=O)O)NC(=O)[C@H](C)NC(=O)[C@H](CC(C)C)NC(=O)[C@H](CCCNC(=N)N)NC(=O)[C@H](CCC(N)=O)NC(=O)[C@@H](NC(=O)[C@H](C)NC(=O)[C@@H]1CSSC[C@H](NC(=O)[C@@H](N)CCCCN)C(=O)N[C@@H](CC(N)=O)C(=O)N[C@@H]([C@@H](C)O)C(=O)N[C@@H](C)C(=O)N[C@@H]([C@@H](C)O)C(=O)N1)[C@@H](C)O)C(=O)N1CCC[C@H]1C(=O)N[C@@H](CO)C(=O)N[C@@H](CO)C(=O)N[C@H](C(=O)N[C@@H](CC(N)=O)C(=O)N[C@H](C(=O)NCC(=O)N[C@@H](CO)C(=O)N[C@@H](CC(=O)O)C(=O)N[C@H](C(=O)N[C@@H](Cc1ccc(O)cc1)C(N)=O)[C@@H](C)O)C(C)C)[C@@H](C)O, also called 59; compound 59)

More lines, now with the values behind:

Binder | IC50 [nM]
K([AEEA-γGlu-C20 diacid])CNTATCATQRLANFLRHSSPNFGAIPSSTNVGSNTY-NH2 (disulfide 2-7; N-terminus assumed; SMILES CC[C@H](C)[C@H](NC(=O)[C@H](C)NC(=O)CNC(=O)[C@H](Cc1ccccc1)NC(=O)[C@H](CC(N)=O)NC(=O)[C@@H]1CCCN1C(=O)[C@H](CO)NC(=O)[C@H](CO)NC(=O)[C@H](Cc1c[nH]cn1)NC(=O)[C@H](CCCNC(=N)N)NC(=O)[C@H](CC(C)C)NC(=O)[C@H](Cc1ccccc1)NC(=O)[C@H](CC(N)=O)NC(=O)[C@H](C)NC(=O)[C@H](CC(C)C)NC(=O)[C@H](CCCNC(=N)N)NC(=O)[C@H](CCC(N)=O)NC(=O)[C@@H](NC(=O)[C@H](C)NC(=O)[C@@H]1CSSC[C@H](NC(=O)[C@@H](N)CCCCNC(=O)COCCOCCNC(=O)CC[C@H](NC(=O)CCCCCCCCCCCCCCCCCCC(=O)O)C(=O)O)C(=O)N[C@@H](CC(N)=O)C(=O)N[C@@H]([C@@H](C)O)C(=O)N[C@@H](C)C(=O)N[C@@H]([C@@H](C)O)C(=O)N1)[C@@H](C)O)C(=O)N1CCC[C@H]1C(=O)N[C@@H](CO)C(=O)N[C@@H](CO)C(=O)N[C@H](C(=O)N[C@@H](CC(N)=O)C(=O)N[C@H](C(=O)NCC(=O)N[C@@H](CO)C(=O)N[C@@H](CC(N)=O)C(=O)N[C@H](C(=O)N[C@@H](Cc1ccc(O)cc1)C(N)=O)[C@@H](C)O)C(C)C)[C@@H](C)O, also called 41; compound 41) | 0.427
K([γGlu-C20 diacid])CNTATCATQRLAEFLRHSSPNFGAIPSSTNVGSNTP-NH2 (disulfide 2-7; N-terminus assumed; SMILES CC[C@H](C)[C@H](NC(=O)[C@H](C)NC(=O)CNC(=O)[C@H](Cc1ccccc1)NC(=O)[C@H](CC(N)=O)NC(=O)[C@@H]1CCCN1C(=O)[C@H](CO)NC(=O)[C@H](CO)NC(=O)[C@H](Cc1c[nH]cn1)NC(=O)[C@H](CCCNC(=N)N)NC(=O)[C@H](CC(C)C)NC(=O)[C@H](Cc1ccccc1)NC(=O)[C@H](CCC(=O)O)NC(=O)[C@H](C)NC(=O)[C@H](CC(C)C)NC(=O)[C@H](CCCNC(=N)N)NC(=O)[C@H](CCC(N)=O)NC(=O)[C@@H](NC(=O)[C@H](C)NC(=O)[C@@H]1CSSC[C@H](NC(=O)[C@@H](N)CCCCNC(=O)CC[C@H](NC(=O)CCCCCCCCCCCCCCCCCCC(=O)O)C(=O)O)C(=O)N[C@@H](CC(N)=O)C(=O)N[C@@H]([C@@H](C)O)C(=O)N[C@@H](C)C(=O)N[C@@H]([C@@H](C)O)C(=O)N1)[C@@H](C)O)C(=O)N1CCC[C@H]1C(=O)N[C@@H](CO)C(=O)N[C@@H](CO)C(=O)N[C@H](C(=O)N[C@@H](CC(N)=O)C(=O)N[C@H](C(=O)NCC(=O)N[C@@H](CO)C(=O)N[C@@H](CC(N)=O)C(=O)N[C@H](C(=O)N1CCC[C@H]1C(N)=O)[C@@H](C)O)C(C)C)[C@@H](C)O, also called 12; compound 12) | 0.142
K([γGlu-C20 diacid])CNTATCATQRLAHFLRHSSPNFGAIPSSTNVGPNTY-NH2 (disulfide 2-7; N-terminus assumed; SMILES CC[C@H](C)[C@H](NC(=O)[C@H](C)NC(=O)CNC(=O)[C@H](Cc1ccccc1)NC(=O)[C@H](CC(N)=O)NC(=O)[C@@H]1CCCN1C(=O)[C@H](CO)NC(=O)[C@H](CO)NC(=O)[C@H](Cc1c[nH]cn1)NC(=O)[C@H](CCCNC(=N)N)NC(=O)[C@H](CC(C)C)NC(=O)[C@H](Cc1ccccc1)NC(=O)[C@H](Cc1c[nH]cn1)NC(=O)[C@H](C)NC(=O)[C@H](CC(C)C)NC(=O)[C@H](CCCNC(=N)N)NC(=O)[C@H](CCC(N)=O)NC(=O)[C@@H](NC(=O)[C@H](C)NC(=O)[C@@H]1CSSC[C@H](NC(=O)[C@@H](N)CCCCNC(=O)CC[C@H](NC(=O)CCCCCCCCCCCCCCCCCCC(=O)O)C(=O)O)C(=O)N[C@@H](CC(N)=O)C(=O)N[C@@H]([C@@H](C)O)C(=O)N[C@@H](C)C(=O)N[C@@H]([C@@H](C)O)C(=O)N1)[C@@H](C)O)C(=O)N1CCC[C@H]1C(=O)N[C@@H](CO)C(=O)N[C@@H](CO)C(=O)N[C@H](C(=O)N[C@@H](CC(N)=O)C(=O)N[C@H](C(=O)NCC(=O)N1CCC[C@H]1C(=O)N[C@@H](CC(N)=O)C(=O)N[C@H](C(=O)N[C@@H](Cc1ccc(O)cc1)C(N)=O)[C@@H](C)O)C(C)C)[C@@H](C)O, also called 67; compound 67) | 0.09
